# Experimental data published in the RNAGym collection of RNA variant scans (doi:10.1073/pnas.2313332121).
# B1: TPR t1 (parent)
# chain: GACCAAUCUGCCCUCAGAGCUCGAGAACAUCUUCGGAUGCAGAGGAGGCAGGCUUCGGUGGCGCGAUAGCGCCAACGUCCUCAACCUCCAAUGCAUCCCACCACAUGAUGAUGCCUGAAGAGCCUUGGUUUUUUG
# Variants of: B1
# Experiment: polymerase ribozyme fitness, log enrichment relative to wild type (log ratio); higher = more active; in vitro selection for triplet polymerase activity
# Procedure, shortened: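 Mutant libraries for each subunit of a heterodimeric triplet polymerase ribozyme were made by PCR and then transcribed. Each library underwent one round of in vitro selection in triplicate: annealing with a biotinylated primer, the partner subunit and triplets, frozen incubation at −7 °C, gel excision of extended constructs, streptavidin-bead capture and RT-PCR. Input and output libraries were Illumina-sequenced, and only genotypes with ≥10 input reads and ≥1 read per output were kept. Fitness is the logarithm, base 2, of genotype enrichment over wild-type enrichment, computed from inverse-variance-weighted replicate averages.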
row,Variant,polymerase ribozyme fitness (log ratio)
1,G51C A91U G113C C124A,-5.11
2,G51C A100U,-5.07
3,G51C C53G G61U,-2.56
4,G51C C62U,-3.45
5,G51C C64U,-3.9
6,G51C C72A,-3.1
7,G51C C79A G117A U133G,-5.7
8,G51C G52U C102A C124A,-4.54
9,G51C G57A,-3.2
10,G51C G60A A111G,-4.94
11,G51C G93U,-5.19
12,G51C U59A C82U C98U,-5.66
13,G51C U129A,-5.21
14,G51U A68U U106G G110U C124A,-5.92
15,G51U A111C,-4.77
16,G51U A111U,-6.02
17,G51U C56A G69U U106C,-1.79
18,G51U C62U C89U,-5
19,G51U C64G A83C G113U C123G G127A,-6.21
20,G51U C70G,-5.67
21,G51U C70U,-3.37
22,G51U C73U U112C,-1.32
23,G51U C76A U106A,-2
24,G51U C82G A83U U87A,-1.52

row,Variant,polymerase ribozyme fitness (log ratio)
1,G51U C104U,-3.67
2,G51U G52A,-4.95
3,G51U G57A C76A G110U G122U,-5.8
4,G51U G61A,-3.03
5,G51U G61C U87C C123A,-4.21
6,G51U G71C,-5.37
7,G51U G71C U109G G117U C124G,-7.73
8,G51U G71U C79G,-2.26
9,G51U G77C A91C C94A,-5.09
10,G51U G113U,-6.05
11,G51U G117U,-5.83
12,G51U U55A C73U U78G C98U A105U,-7.15
13,G51U U55G,-3.24
14,G51U U59A,-2.98
15,G51U U67A A75U C88A U106A U112C,-6.98
16,G51U U87C C123A,-2.59
17,G51U U112A A118U,-3.5
18,G51U U116C,-4.25
19,G51U U125A,-3.77
20,G52A A66G,-1.47
21,G52A A74G G122A C124U,0.026
22,G52A A74G U78G C80A,-3.14
23,G52A A90C A100U A111G,-2.82
24,G52A C53A A74G A90G,0.00151

row,Variant,polymerase ribozyme fitness (log ratio)
1,G52A C72G G128C U130G,-1.87
2,G52A C73U C82U,-0.555
3,G52A C79A G110C,-5.08
4,G52A C82U A90C G117C,-3.56
5,G52A C98U,-1.13
6,G52A C101U,0.00367
7,G52A C114A,-2.73
8,G52A C114U,-2.52
9,G52A C115U,-2
10,G52A C124U,0.924
11,G52A G60U C104G,-7.51
12,G52A G61A U132A,-0.488
13,G52A G63C,-0.879
14,G52A G63U C114A,-3.58
15,G52A G69A A90C U116G G117C A118G,-6.12
16,G52A G69U U78A C89U G128U,-2.93
17,G52A G71C,-3.42
18,G52A G93A,-0.652
19,G52A G135U,-1.86
20,G52A U55C C56A G57C,0.195
21,G52A U59A,0.487
22,G52A U78C C86A C124G G128A,-1.71
23,G52A U106G A111C,-2.25
24,G52A U109A,-5.76

row,Variant,polymerase ribozyme fitness (log ratio)
1,G52C A119G C124U,1.65
2,G52C C64U A84U C104A U112A,-1.62
3,G52C C72A,-1.99
4,G52C C72A C104U C115G U116C U126G,-6.41
5,G52C G69A C114U,-5.1
6,G52U A74G A84G A121U,0.168
7,G52U A83C C101G C115U,-4.77
8,G52U C53A,-1.2
9,G52U C53G G60C C80A C94U,-2.08
10,G52U C53G U54C U78C C97U,-1.14
11,G52U C53U C62U C85U U129A,-3.42
12,G52U C56U,-2.1
13,G52U C62A,-2.89
14,G52U C64G C94U U106A A119G,-6.74
15,G52U C70U,-1.49
16,G52U C73A,-0.528
17,G52U C80G,-4.76
18,G52U C86G C89G G113C C114U A118G,-4.62
19,G52U C88G A118U,-0.0981
20,G52U C114U U125A,-4.04
21,G52U G57C C97G C114A A119U,-6.02
22,G52U G57U G61U A111U,-6.65
23,G52U G58C G77A U87C U96G,-1.61
24,G52U G60A A105C U106G A118G,-3.93

row,Variant,polymerase ribozyme fitness (log ratio)
1,G52U G60U,-0.578
2,G52U G60U C73U U96G A121G,-0.386
3,G52U G61A C94U,-0.267
4,G52U G61C C124G U131G,-1.09
5,G52U G61C G122A U125G,-1.37
6,G52U G61C U131A,-1.22
7,G52U G69C,-1.54
8,G52U G69U A91C C104A,-2.27
9,G52U G93C G120A G135C,-1.15
10,G52U U54A G63A C115A,-0.839
11,G52U U59A G113C A119G,-1.67
12,G52U U59C,-0.547
13,G52U U133G,-1.42
14,C53A A66G C123U,0.367
15,C53A A66U C72U C123U,0.234
16,C53A A68U,-6.8
17,C53A A74U A95C G120A,-0.291
18,C53A A83G A105C,-3.47
19,C53A A90U G117C,-4.59
20,C53A A103U,-4.67
21,C53A C56A A84G U106C G113A,-2.51
22,C53A C56G C62U C89A G120C U134G,-0.681
23,C53A C56G C70U U132A,-0.0503
24,C53A C56G G71C G127C,-1.96

row,Variant,polymerase ribozyme fitness (log ratio)
1,C53A C62A G77C,-0.326
2,C53A C70U,0.0165
3,C53A C72U C86G C115U,-1.64
4,C53A C72U C86U G110C,-3.78
5,C53A C72U C98U C123U,-3.81
6,C53A C72U C104U G113C,-2.1
7,C53A C73A U78G G110U,-0.702
8,C53A C76A C88A U92A,-5.92
9,C53A C79A G128A,-3.36
10,C53A C85A G117A U125G,-3.17
11,C53A C85A G135U,-2.53
12,C53A C86A C124A,1.52
13,C53A C86U,-0.0407
14,C53A C88A,-0.22
15,C53A C88U C101A,0.356
16,C53A C88U C101U C123U,0.64
17,C53A C94U C104U U112C,1.78
18,C53A C98A C102G U112C,-7.27
19,C53A C99A G117C A118G,-7.29
20,C53A C115U A119U,0.429
21,C53A G58A C89G C102U A103U C123G,-5.91
22,C53A G60A A121U,1.33
23,C53A G60A C72U A100U G120C C123G,-0.938
24,C53A G60A G69C,-3.47

row,Variant,polymerase ribozyme fitness (log ratio)
1,C53A G60A U92G,-2.9
2,C53A G60C A103C U116C G120C,-7.17
3,C53A G61A U78G C79A U81G C85A,-4.32
4,C53A G61C U78C C85U G93A,-0.976
5,C53A G63A,-0.638
6,C53A G63A C124U U129C U134G,1.57
7,C53A G63U,-1.77
8,C53A G69C G77U U96A G117A,-5.87
9,C53A G69U G120C,1.96
10,C53A G69U U78G C82A,-0.279
11,C53A G71C C86A C124A,-2.54
12,C53A G110U,-1.02
13,C53A G122U C123A,0.198
14,C53A U54A C80A C114A C124G U125A,-6.7
15,C53A U55A G71C C88U C89U,-1.28
16,C53A U78C C104A,-1.25
17,C53A U78C G113U,-3.16
18,C53A U81G A90G,0.427
19,C53A U87A A90G C97G U112A,-3.25
20,C53A U87C,0.506
21,C53A U92G A95U,-2.44
22,C53A U116G,-1.78
23,C53A U133G,-0.187
